Reference: article PMC10485164, “Sequence-specific targeting of Caenorhabditis elegans C-Ala to the D-loop of tRNAAla”

Tests used:
[1] = tested on: Ce-C-Alam (C-Ala of mitochondrial AlaRS) (Caenorhabditis elegans); test: EMSA; conditions: 5 mM Mg2+; EMSA: 20 mM Hepes pH 7.5, 20 mM KCl, 5 mM MgCl2, 2 mM DTT, 10 min on ice, 0.1 uM ligand; 5% native PAGE in 0.5x TBE at 4 C; protein 0.125-32 uM
[2] = tested on: CeAlaRSm (mitochondrial AlaRS) (Caenorhabditis elegans); test: EMSA; conditions: 5 mM Mg2+; EMSA: 20 mM Hepes pH 7.5, 20 mM KCl, 5 mM MgCl2, 2 mM DTT, 10 min on ice, 0.1 uM ligand; 5% native PAGE in 0.5x TBE at 4 C; protein 0.125-32 uM
[3] = tested on: CeAlaRSm(ΔC) (Caenorhabditis elegans); test: EMSA; conditions: 5 mM Mg2+; EMSA: 20 mM Hepes pH 7.5, 20 mM KCl, 5 mM MgCl2, 2 mM DTT, 10 min on ice, 0.1 uM ligand; 5% native PAGE in 0.5x TBE at 4 C; protein 0.125-32 uM
[4] = target: T1, Ce-C-Alac helical subdomain (HS) (Caenorhabditis elegans, UniProt O01541 757-858); test: EMSA; 5 mM Mg2+; EMSA: 20 mM Hepes pH 7.5, 20 mM KCl, 5 mM MgCl2, 2 mM DTT, 10 min on ice, 0.1 uM ligand; 5% native PAGE in 0.5x TBE at 4 C; protein 0.125-32 uM; conditions: protein: recombinant, tags: His6 (C-terminal, pET21b), label: 5'-32P
T1 sequence: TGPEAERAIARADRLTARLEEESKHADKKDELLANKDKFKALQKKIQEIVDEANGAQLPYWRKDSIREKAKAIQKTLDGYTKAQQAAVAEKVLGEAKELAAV

[5] = target: T2, Ce-C-Alac globular subdomain (GS) (Caenorhabditis elegans, UniProt O01541 859-968); test: as above; conditions: protein: recombinant, tags: His6 (C-terminal, pET21b), label: 5'-32P
T2 sequence: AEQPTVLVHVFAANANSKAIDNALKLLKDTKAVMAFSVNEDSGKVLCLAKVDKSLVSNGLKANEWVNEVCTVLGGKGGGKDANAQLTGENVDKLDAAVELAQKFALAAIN

[6] = target: T3, Ce-C-Alac (C-Ala of cytoplasmic AlaRS) (Caenorhabditis elegans, UniProt O01541 757-968); test: as above; conditions: protein: recombinant, tags: His6 (C-terminal, pET21b), label: 5'-32P
T3 sequence: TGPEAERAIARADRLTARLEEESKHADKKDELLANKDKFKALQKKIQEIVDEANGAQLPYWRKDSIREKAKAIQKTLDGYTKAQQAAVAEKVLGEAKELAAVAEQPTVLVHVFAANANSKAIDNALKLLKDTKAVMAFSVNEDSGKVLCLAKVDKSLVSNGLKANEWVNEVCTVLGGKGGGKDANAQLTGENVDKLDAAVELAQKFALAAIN

[7] = target: T3, Ce-C-Alac (C-Ala of cytoplasmic AlaRS); test: as above; conditions: protein: recombinant; tags: His6 (C-terminal, pET21b); label: 5'-32P; two hairpins

## GGGGGUAUAGCUCAGUGGUAGAGCGCUCCCUUAGCAUGGGAGAGGGCUGGGGUUCAAUUCCCCAUACCUCCACCA [CetRNAnAla]
[1]
  binding signal (fold lower affinity than CetRNAmAla): 7.5

## GGGAUUUUAGUUUAGUGGUAAAAUAUAUGUUUUGCAUACAUAAGAUAAUAAUUCUACCA [DLnAla mut (CetRNAmAla with D-loop of CetRNAnAla)]
[1]
  Kd: 4 µM
[2]
  Kd: 1 µM
[3]
  Kd: > 32 µM

## GGGAUUUUAGUUUAAUAAAAAUAUAUGUUUUGCAUACAUAAGAUAAUAAUUCUACCA [CetRNAmAla]
[1]
  Kd: 0.2 µM
[2]
  Kd: 0.2 µM
[3]
  Kd: > 32 µM

B1: minihelix (T-arm-acceptor stem of CetRNAnAla) (structured_RNA)
RNA: GGGGGUAUGGGGUUCAAUUCCCCAUACCUCCACCA
[4]; hairpin
  Kd: 11 ± 0.1 µM
[5]; hairpin
  Kd: 9 ± 0.2 µM

B2: DLmAla mut (CetRNAnAla with D-loop of CetRNAmAla) (structured_RNA)
RNA: GGGGGUAUAGCUCAAUAAGAGCGCUCCCUUAGCAUGGGAGAGGGCUGGGGUUCAAUUCCCCAUACCUCCACCA
[6]; tRNA
  Kd: 6.5 µM

B3: biloop AG mutant (A14G15 to CC) (structured_RNA)
RNA: GCUCCCUGGUAGAGCGCUCCCUUAGCAUGGGAG
[7]
  binding signal: 4 fold lower affinity than WT biloop

B4: biloop (D-arm-anticodon arm of CetRNAnAla) (structured_RNA)
RNA: GCUCAGUGGUAGAGCGCUCCCUUAGCAUGGGAG
[6]; two hairpins
  Kd: 2 µM
[4]; two hairpins
  Kd: 6 ± 0.4 µM
[5]; two hairpins
  Kd: 2 ± 0.4 µM

B5: CetRNAmAla (structured_RNA)
RNA: GGGAUUUUAGUUUAAUAAAAAUAUAUGUUUUGCAUACAUAAGAUAAUAAUUCUACCA
[6]; tRNA
  Kd: 4.5 µM

B6: CetRNAnAla (structured_RNA)
RNA: GGGGGUAUAGCUCAGUGGUAGAGCGCUCCCUUAGCAUGGGAGAGGGCUGGGGUUCAAUUCCCCAUACCUCCACCA
[6]; tRNA cloverleaf
  Kd: 0.8 µM
[4]; tRNA cloverleaf
  Kd: 2 µM
[5]; tRNA cloverleaf
  Kd: 0.5 µM

B7: CetRNAnAla A14G15 mutant (to GA) (structured_RNA)
RNA: GGGGGUAUAGCUCGAUGGUAGAGCGCUCCCUUAGCAUGGGAGAGGGCUGGGGUUCAAUUCCCCAUACCUCCACCA
[6]; tRNA, conformation disrupted
  Kd: 10 µM

B8: CetRNAnAla A14G15C48 mutant (structured_RNA)
RNA: GGGGGUAUAGCUCGAUGGUAGAGCGCUCCCUUAGCAUGGGAGAGGGUUGGGGUUCAAUUCCCCAUACCUCCACCA
[6]; tRNA
  Kd: 2 µM

B9: CetRNAnAla G18G19C56 mutant (structured_RNA)
RNA: GGGGGUAUAGCUCAGUAAUAGAGCGCUCCCUUAGCAUGGGAGAGGGCUGGGGUUUAAUUCCCCAUACCUCCACCA
[6]; tRNA
  Kd: 8 µM

B10: SctRNAnGly (structured_RNA)
RNA: GCGCAAGUGGUUUAGUGGUAAAAUCCAACGUUGCCAUCGUUGGGCCCCCGGUUCGAUUCCGGGCUUGCGCACCA
[6]; tRNA cloverleaf
  Kd: 0.9 µM
